The source of these data is US20210214417A1 (KAHR MEDICAL, published 2021).

The test addresses T1, recombinant human His-tagged CD47 protein (ACRO Biosystem, cat # CD7-H5227) (human, UniProt Q08722 19-139).
T1 construct: also called Recombinant human CD47; not shown: His tag
Kind of test: competition ELISA: recombinant human CD47 on the plate, fusion protein added first, then biotinylated SIRPα as the blocked ligand, streptavidin-HRP and TMB, 450 nm; EC50 calculated over 0 to 0.7 ug/ml. The method, then:
SIRPα-4-1BBL fusion protein, or a positive control anti CD47 antibody were added to the plate. Following wash biotinylated recombinant human SIRPα was added followed by streptavidin HRP and TMB substrate. Interaction of SIRPα with CD47 was measured by absorbance at 450 nm.
Methods—ELISA plates were coated overnight with recombinant human CD47. The plates were washed and incubated for 1 hour with different concentrations of the produced SIRPα-4-BBL fusion proteins or a positive control anti CD47 antibody. Following, a biotinylated SIRPα was added; and following 1 hour incubation the plates were washed and blotted with Streptavidin-HRP and TMB substrate according to a standard ELISA protocol (FIG. 13A). Plates were analyzed using a Plate reader (Thermo Scientific, Multiscan FC) at 450 nm, with reference at 620 nm.

T1 sequence (Q08722 19-139 limits assumed): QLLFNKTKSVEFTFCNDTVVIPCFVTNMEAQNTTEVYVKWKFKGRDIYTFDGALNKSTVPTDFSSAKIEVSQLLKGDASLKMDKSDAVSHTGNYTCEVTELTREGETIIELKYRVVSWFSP

B1: C-terminal his-tagged DSP107_V3.1 (SEQ ID NO: 17) (other)
chain: EEELQVIQPDKSVLVAAGETATLRCTATSLIPVGPIQWFRGAGPGRELIYNQKEGHFPRVTTVSDLTKRNNMDFSIRIGNITPADAGTYYCVKFRKGSPDDVEFKSGAGTELSVRAGSGARASPGSAASPRLREGPELSPDDPAGLLDLRQGMFAQLVAQNVLLIDGPLSWYSDPGLAGVSLTGGLSYKEDTKELVVAKAGVYYVFFQLELRRVVAGEGSGSVSLALHLQPLRSAAGAAALALTVDLPPASSEARNSAFGFQGRLLHLSAGQRLGVHLHTEARARHAWQLTQGATVLGLFRVTPEIPAGLPSPRSEHHHHHH
notes: also called (CH)-V3.1; DSP107_var3.1 with C-terminal His tag
As to B1, the EC50 (as a rule, the midpoint of the concentration-response curve) was 0.103 µg/mL.
